Measurements as given in publication PMC6220267 (2018).

Legend:
Test in all cases: BLI
[1] = target: T1, Aβ42 oligomers (soluble) (UniProt P05067 672-713)
[2] = target: T1, Aβ42 oligomers (soluble); remark: listed apart in the source
[3] = target: Aβ42 monomers (UniProt P05067 672-713)
[4] = target: Aβ40 monomers (UniProt P05067 672-711)

Row | Binder | Kd [1] [pM] | koff [2] [s⁻¹] | Kd [3] [pM] | Kd [4] [pM]
1 | soluble TREML1‐Fc (human, soluble ectodomain) (Fc fusion) QGIVGSLPEVLQAPVGSSILVQCHYRLQDVKAQKVWCRFLPEGCQPLVSSAVDRRAPAGRRTFLTDLGGGLLQVEMVTLQEEDAGEYGCMVDGARGPQILHRVSLNILPPEEEEETHKIGSLAENAFSDPAGSANPLEPSQDEKSIP | 1 | 1e-07 | – | –
2 | soluble mouse Trem2‐Fc (soluble ectodomain) (Fc fusion) LNTTVLQGMAGQSLRVSCTYDALKHWGRRKAWCRQLGEEGPCQRVVSTHGVWLLAFLKKRNGSTVIADDTLAGTVTITLKNLQAGDAGLYQCQSLRGREAEVLQKVLVEVLEDPLDDQDAGDLWVPEESSSFEGAQVEHSTSRNQETSFPPTS | 1 | 1e-07 | – | –
3 | soluble TREM2‐Fc (soluble ectodomain of human TREM2 fused to the Fc domain of human IgG4, V5 epitope) (Fc fusion) HNTTVFQGVAGQSLQVSCPYDSMKHWGRRKAWCRQLGEKGPCQRVVSTHNLWLLSFLRRWNGSTAITDDTLGGTLTITLRNLQPHDAGLYQCQSLHGSEADTLRKVLVEVLADPLDHRDAGDLWFPGESESFEDAHVEHSISRSLLEGEIPFPPTS | – | – | 290000 | 140000
4 | soluble mouse Treml1‐Fc (soluble ectodomain) (Fc fusion) DSHPEVLQAPVGSSILVQCHYRLQDVRALKVWCQFLQEGCHPLVTSAVDRRAPGNGRIFLTDLGGGLLQVEMVTLQEEDTGEYGCVVEGAAGPQTLHRVSLLVLPPVPGPREGEEAEDEKETYRIGTGSLLEDPSLDPSASAGPHEFRRRENSIP | 1 | 1e-07 | – | –
